What was measured:
HA-Halo-mGluR2 = HA-Halo-mGluR2 (rat, UniProt P31421 19-872, Halo tag labeled with CA-SS-Alexa-488); assay: single-molecule pulldown
HA-Halo-mGluR8 = HA-Halo-mGluR8 (human, UniProt O00222 34-908, Halo tag labeled with CA-SS-Alexa-488); assay: single-molecule pulldown
Sequence of HA-Halo-mGluR8 (O00222 34-908): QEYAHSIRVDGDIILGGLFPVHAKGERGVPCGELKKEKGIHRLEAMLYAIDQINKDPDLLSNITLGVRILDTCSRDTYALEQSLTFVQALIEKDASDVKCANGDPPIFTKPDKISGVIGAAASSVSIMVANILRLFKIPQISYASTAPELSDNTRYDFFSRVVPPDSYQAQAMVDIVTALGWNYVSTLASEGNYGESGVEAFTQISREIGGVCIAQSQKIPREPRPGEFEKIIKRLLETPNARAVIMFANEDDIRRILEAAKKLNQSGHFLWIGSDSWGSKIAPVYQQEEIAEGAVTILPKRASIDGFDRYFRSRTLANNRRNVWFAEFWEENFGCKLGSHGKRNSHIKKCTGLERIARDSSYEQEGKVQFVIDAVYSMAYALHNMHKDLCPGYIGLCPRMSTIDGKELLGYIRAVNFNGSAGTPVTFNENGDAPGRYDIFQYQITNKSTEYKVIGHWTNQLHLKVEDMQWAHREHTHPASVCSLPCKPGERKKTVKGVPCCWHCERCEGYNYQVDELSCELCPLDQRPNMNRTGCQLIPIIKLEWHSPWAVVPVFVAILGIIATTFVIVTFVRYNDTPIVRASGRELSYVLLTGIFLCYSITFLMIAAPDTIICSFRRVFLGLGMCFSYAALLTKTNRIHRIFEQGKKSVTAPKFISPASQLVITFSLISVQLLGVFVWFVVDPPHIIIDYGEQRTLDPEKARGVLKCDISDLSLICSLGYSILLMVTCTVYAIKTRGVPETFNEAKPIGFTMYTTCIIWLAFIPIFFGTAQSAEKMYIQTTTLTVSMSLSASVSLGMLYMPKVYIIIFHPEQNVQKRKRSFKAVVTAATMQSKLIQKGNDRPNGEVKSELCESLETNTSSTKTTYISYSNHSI

Sequence of HA-Halo-mGluR2 (P31421 19-872): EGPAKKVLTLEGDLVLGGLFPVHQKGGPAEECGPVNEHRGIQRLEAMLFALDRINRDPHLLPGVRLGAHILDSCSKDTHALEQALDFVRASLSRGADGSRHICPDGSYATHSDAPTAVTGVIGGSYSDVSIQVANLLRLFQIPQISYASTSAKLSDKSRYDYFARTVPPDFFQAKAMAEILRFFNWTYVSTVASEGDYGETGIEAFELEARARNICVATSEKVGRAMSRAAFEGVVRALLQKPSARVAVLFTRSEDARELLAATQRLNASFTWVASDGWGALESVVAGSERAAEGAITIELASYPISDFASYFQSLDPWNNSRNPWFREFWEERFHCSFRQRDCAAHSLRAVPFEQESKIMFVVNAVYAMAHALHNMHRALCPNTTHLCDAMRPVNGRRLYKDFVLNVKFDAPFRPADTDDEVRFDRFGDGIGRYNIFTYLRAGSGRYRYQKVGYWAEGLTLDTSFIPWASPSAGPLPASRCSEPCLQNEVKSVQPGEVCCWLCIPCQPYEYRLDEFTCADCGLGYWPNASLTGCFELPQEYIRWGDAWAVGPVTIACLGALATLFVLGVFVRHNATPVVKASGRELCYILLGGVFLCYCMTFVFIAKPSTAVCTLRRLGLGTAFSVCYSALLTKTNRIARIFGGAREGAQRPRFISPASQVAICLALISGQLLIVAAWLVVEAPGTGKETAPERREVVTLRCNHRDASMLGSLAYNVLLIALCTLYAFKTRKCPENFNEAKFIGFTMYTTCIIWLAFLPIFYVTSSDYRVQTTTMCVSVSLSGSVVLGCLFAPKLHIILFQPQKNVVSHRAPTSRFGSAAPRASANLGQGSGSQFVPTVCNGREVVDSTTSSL

B1: SNAP-mGluR3 without an HA tag (receptor)
chain: LGDHNFMRREIKIEGDLVLGGLFPINEKGTGTEECGRINEDRGIQRLEAMLFAIDEINKDNYLLPGVKLGVHILDTCSRDTYALEQSLEFVRASLTKVDEAEYMCPDGSYAIQENIPLLIAGVIGGSYSSVSIQVANLLRLFQIPQISYASTSAKLSDKSRYDYFARTVPPDFYQAKAMAEILRFFNWTYVSTVASEGDYGETGIEAFEQEARLRNICIATAEKVGRSNIRKSYDSVIRELLQKPNARVVVLFMRSDDSRELIAAANRVNASFTWVASDGWGAQESIVKGSEHVAYGAITLELASHPVRQFDRYFQSLNPYNNHRNPWFRDFWEQKFQCSLQNKRNHRQVCDKHLAIDSSNYEQESKIMFVVNAVYAMAHALHKMQRTLCPNTTKLCDAMKILDGKKLYKEYLLKINFTAPFNPNKGADSIVKFDTFGDGMGRYNVFNLQQTGGKYSYLKVGHWAETLSLDVDSIHWSRNSVPTSQCSDPCAPNEMKNMQPGDVCCWICIPCEPYEYLVDEFTCMDCGPGQWPTADLSGCYNLPEDYIKWEDAWAIGPVTIACLGFLCTCIVITVFIKHNNTPLVKASGRELCYILLFGVSLSYCMTFFFIAKPSPVICALRRLGLGTSFAICYSALLTKTNCIARIFDGVKNGAQRPKFISPSSQVFICLGLILVQIVMVSVWLILETPGTRRYTLPEKRETVILKCNVKDSSMLISLTYDVVLVILCTVYAFKTRKCPENFNEAKFIGFTMYTTCIIWLAFLPIFYVTSSDYRVQTTTMCISVSLSGFVVLGCLFAPKVHIVLFQPQKNVVTHRLHLNRFSVSGTATTYSQSSASTYVPTVCNGREVLDSTTSSL
modifications: SNAP tag labeled with SBG-JF646
- stoichiometry N (HA-Halo-mGluR2): 1
- stoichiometry N (HA-Halo-mGluR8): 1
